In article PMC4565748 (2015):

Target: C3b (Homo sapiens, UniProt P01024)
Experiment: AlphaAssay

Sequence of C3b (P01024 23-667, chain 1 of 2): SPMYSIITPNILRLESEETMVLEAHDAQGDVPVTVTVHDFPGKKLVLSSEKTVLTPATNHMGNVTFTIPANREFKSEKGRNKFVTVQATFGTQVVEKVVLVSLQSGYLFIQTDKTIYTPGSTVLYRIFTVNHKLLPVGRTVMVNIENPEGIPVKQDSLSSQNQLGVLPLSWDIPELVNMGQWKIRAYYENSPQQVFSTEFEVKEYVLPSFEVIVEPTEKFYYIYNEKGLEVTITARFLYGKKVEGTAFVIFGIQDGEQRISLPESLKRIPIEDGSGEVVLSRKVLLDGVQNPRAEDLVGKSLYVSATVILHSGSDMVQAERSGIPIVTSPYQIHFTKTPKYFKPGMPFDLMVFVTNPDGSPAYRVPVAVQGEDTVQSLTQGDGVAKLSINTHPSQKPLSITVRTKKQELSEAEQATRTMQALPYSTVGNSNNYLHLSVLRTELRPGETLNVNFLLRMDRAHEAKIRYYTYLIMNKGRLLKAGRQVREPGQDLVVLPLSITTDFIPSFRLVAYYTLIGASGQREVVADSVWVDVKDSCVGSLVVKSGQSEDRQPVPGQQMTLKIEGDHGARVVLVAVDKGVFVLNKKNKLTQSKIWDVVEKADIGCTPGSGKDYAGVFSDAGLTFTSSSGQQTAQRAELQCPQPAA
Sequence of C3b (P01024 749-1663, chain 2 of 2): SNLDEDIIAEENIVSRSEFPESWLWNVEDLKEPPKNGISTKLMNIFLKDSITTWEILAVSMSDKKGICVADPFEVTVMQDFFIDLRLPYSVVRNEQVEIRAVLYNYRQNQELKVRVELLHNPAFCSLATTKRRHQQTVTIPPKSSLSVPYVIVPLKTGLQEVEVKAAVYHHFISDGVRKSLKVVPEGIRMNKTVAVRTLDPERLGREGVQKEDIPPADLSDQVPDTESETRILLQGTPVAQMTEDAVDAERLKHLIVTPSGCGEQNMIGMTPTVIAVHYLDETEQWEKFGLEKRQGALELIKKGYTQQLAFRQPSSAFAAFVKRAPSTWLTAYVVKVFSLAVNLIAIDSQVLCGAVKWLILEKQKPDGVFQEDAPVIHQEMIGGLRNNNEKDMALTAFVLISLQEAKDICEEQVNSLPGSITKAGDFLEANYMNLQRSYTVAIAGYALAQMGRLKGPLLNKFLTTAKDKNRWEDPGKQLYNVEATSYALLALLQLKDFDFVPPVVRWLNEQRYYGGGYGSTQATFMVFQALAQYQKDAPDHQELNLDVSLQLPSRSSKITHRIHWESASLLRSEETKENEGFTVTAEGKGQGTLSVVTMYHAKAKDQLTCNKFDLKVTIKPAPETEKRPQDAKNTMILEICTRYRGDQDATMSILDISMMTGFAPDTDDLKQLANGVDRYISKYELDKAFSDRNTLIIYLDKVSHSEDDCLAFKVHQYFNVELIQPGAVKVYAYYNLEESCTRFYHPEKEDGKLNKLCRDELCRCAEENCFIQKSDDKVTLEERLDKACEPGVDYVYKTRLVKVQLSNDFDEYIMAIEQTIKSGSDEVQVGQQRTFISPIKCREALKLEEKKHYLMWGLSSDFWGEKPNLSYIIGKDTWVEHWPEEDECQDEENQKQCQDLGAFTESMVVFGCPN

B1: SCIN-A (protein)
chain: STSLPTSNEYQNEKLANELKSLLDELNVNELATGSLNTYYKRTIKISGQKAMYALKSKDFKKMSEAKYQLQKIYNEIDEALKSKY
  Kd: 74 nM
